Measurements as given in paper PMC6465352 (Scientific Reports, 2019).
Values belong to the molecule of their own block, whether it stands above or below them.

Key:
SyCS [1] = target: T1, SyCS (Synechocystis sp. PCC 6803, UniProt Q59977); experiment: DTNB assay at A412, relative activity; format: biochemical; details: read-out: % activity at 5 mM
T1 construct: gene gltA; full-length gltA (synthesized) in pGEX5X-1, GST-tagged, tag not reported cut; expressed in E. coli DH5alpha, glutathione-Sepharose purified
T1 sequence (Q59977 1-397): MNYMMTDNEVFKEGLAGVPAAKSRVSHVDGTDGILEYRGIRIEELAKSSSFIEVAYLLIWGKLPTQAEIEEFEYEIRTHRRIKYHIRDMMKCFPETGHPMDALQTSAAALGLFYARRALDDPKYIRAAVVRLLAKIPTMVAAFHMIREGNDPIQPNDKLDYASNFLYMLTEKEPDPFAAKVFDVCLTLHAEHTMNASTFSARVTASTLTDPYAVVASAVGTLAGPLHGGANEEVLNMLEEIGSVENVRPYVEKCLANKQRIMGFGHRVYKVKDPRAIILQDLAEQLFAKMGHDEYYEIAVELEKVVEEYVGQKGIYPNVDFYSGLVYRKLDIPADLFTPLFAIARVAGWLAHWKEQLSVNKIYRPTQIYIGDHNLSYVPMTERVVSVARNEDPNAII

SyCS [2] = target: T1, SyCS; experiment: DTNB assay at A412, residual activity; format: biochemical; details: read-out: % activity at 5 mM
[3] = substrate: O=C(O)CC(=O)C(=O)O; experiment: DTNB assay at A412, Lineweaver-Burk; format: biochemical, Synechocystis sp. PCC 6803; details: acetyl-CoA 0.5 mM, no effector, 50 mM Tris-HCl pH 7.5, 37 °C, GST-tagged enzyme
Text: (§1) DTNB assay at […], Lineweaver-Burk on SyCS

[4] = substrate: CC(=O)SCCNC(=O)CCNC(=O)[C@H](O)C(C)(C)COP(=O)(O)OP(=O)(O)OC[C@H]1O[C@@H](n2cnc3c(N)ncnc32)[C@H](O)[C@@H]1OP(=O)(O)O; experiment: DTNB assay at A412, Lineweaver-Burk; format: biochemical, Synechocystis sp. PCC 6803; details: oxaloacetate 1 mM, no effector, 50 mM Tris-HCl pH 7.5, 37 °C, GST-tagged enzyme
Text: as §1

- activity at 5000 µM (SyCS [2]): 2%
Molecule: O=C(O)CCC(=O)C(=O)O [2-oxoglutarate]

- activity at 5000 µM (SyCS [2]): 14%
Molecule: C=C(OP(=O)(O)O)C(=O)O [phosphoenolpyruvate]

Further lines, the molecule ahead of its results:

Molecule: Nc1ncnc2c1ncn2[C@@H]1O[C@H](COP(=O)(O)OP(=O)(O)O)[C@@H](O)[C@H]1O [ADP]
- activity at 5000 µM (SyCS [1]): 369%

B1: SyCS (Synechocystis sp. PCC 6803 substr. Kazusa) (protein)
chain: MNYMMTDNEVFKEGLAGVPAAKSRVSHVDGTDGILEYRGIRIEELAKSSSFIEVAYLLIWGKLPTQAEIEEFEYEIRTHRRIKYHIRDMMKCFPETGHPMDALQTSAAALGLFYARRALDDPKYIRAAVVRLLAKIPTMVAAFHMIREGNDPIQPNDKLDYASNFLYMLTEKEPDPFAAKVFDVCLTLHAEHTMNASTFSARVTASTLTDPYAVVASAVGTLAGPLHGGANEEVLNMLEEIGSVENVRPYVEKCLANKQRIMGFGHRVYKVKDPRAIILQDLAEQLFAKMGHDEYYEIAVELEKVVEEYVGQKGIYPNVDFYSGLVYRKLDIPADLFTPLFAIARVAGWLAHWKEQLSVNKIYRPTQIYIGDHNLSYVPMTERVVSVARNEDPNAII
notes: full-length gltA (synthesized) in pGEX5X-1, GST-tagged, tag not reported cut; expressed in E. coli DH5alpha, glutathione-Sepharose purified
- Km [3]: 91 ± 11 µM
- kcat [3]: 2.76 ± 0.26 s⁻¹
- kcat/Km [3]: 30500 ± 3170 M⁻¹ s⁻¹
- Km [4]: 220 ± 77 µM
- kcat [4]: 2.51 ± 0.24 s⁻¹
- kcat/Km [4]: 12100 ± 2950 M⁻¹ s⁻¹
